Reference: patent US20180193486A1, “COMPOSITIONS AND METHODS FOR TREATMENT OF AUTOIMMUNE AND OTHER DISEASE” (priority 2010, published 2018)

Target: reconstituted human albumin (Homo sapiens, UniProt P02768)
Test: Release of CPT in reconstituted human albumin (PBS solution)
Format: in vitro ADME
Settings: compared with PBS
Protocol: This solution was added to a lyophilized powder of human plasma to reconstitute 100% human plasma by the recommended amount. The solution was divided into equal volume (250 μL) to 1.5 mL Eppendorf tubes, incubated at 37° C., and stopped at selected time point. Samples were stored at −80° C. until the analysis. Samples were separated from plasma by solid phase extraction columns. The solid phase extraction cartridge (Oasis HLB 1 cc cartridge from Waters) was pre-conditioned with 1 mL of acetonitrile and then with 1 mL of 8.5% H3PO4 before loading. Samples were acidified with equal volume of 8.5% H3PO4 prior to loading. After the acidified solution was loaded on the cartridge, the bed was washed with 3×1 mL of water. Released CPT and polymer conjugate were eluted with 3×1 mL of a solution mixture of acetonitrile and potassium phosphate buffer (pH 4.1) (60/40 v/v). The eluted solution was diluted to 5 mL total volume in a 5 mL volumetric flask. 30 μL of such solution was injected into the HPLC. The peak area from the CPT lactone form was integrated and compared to a standard curve.

Sequence of reconstituted human albumin (P02768 25-609): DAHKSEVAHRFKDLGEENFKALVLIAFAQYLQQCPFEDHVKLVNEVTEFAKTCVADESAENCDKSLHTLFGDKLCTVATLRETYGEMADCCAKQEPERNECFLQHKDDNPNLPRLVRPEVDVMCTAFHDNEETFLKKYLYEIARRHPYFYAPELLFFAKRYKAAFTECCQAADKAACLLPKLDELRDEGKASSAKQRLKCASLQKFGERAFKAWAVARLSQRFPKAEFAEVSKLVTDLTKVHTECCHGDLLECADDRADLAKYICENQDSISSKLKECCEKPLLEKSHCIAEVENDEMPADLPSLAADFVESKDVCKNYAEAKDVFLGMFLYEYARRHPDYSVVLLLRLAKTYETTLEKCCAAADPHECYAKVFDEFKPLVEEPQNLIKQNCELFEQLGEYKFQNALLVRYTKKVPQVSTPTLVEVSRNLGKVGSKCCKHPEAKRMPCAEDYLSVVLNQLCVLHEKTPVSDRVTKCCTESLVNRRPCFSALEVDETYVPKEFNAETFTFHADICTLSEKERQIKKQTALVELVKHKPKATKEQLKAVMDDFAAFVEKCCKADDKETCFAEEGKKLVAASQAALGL

Substance	CPT release rate in the presence of albumin
Poly(CDDCys-PA-PEG)-Gly-CPT [HG6]	on the same order of magnitude as in PBS
Poly(CDDCys-PA-PEG)-GlyGlyGly-CPT [HGGG6]	on the same order of magnitude as in PBS
